Experimental findings from publication PMC11742315, “Identification of a staphylococcal dipeptidase involved in the production of human body odor” (The Journal of Biological Chemistry, 2024) are described below.

Common to all, as to experiment: purified protein
Data set [1] deals with N[C@@H](CS)C(=O)NCC(=O)O. As to conditions: Mn2+-bound enzyme, 50 mM potassium phosphate, 200 mM NaCl, 37 °C.
The subject of data set [2] is CCCC(C)(CCO)SC[C@H](N)C(=O)NCC(=O)O. To be noted: Mn2+-bound enzyme; 0.1 M Tris-HCl (pH 80 [sic]); coupled with ShPatB.
Substrate in data set [3]: CCCC(C)(CCO)SC[C@H](N)C(=O)NCC(=O)O
As to conditions: 0.1 M Tris-HCl (pH 80 [sic]), coupled with ShPatB.

Take ShPepV (Staphylococcus hominis): in data set [1], the Michaelis-Menten constant (Km) is 2190 ± 220 µM, the kcat is 405 ± 23.6 s⁻¹ and the specificity constant (kcat/Km) is 186000 ± 21800 M⁻¹ s⁻¹. In data set [2], the Michaelis constant (Km) turned out to be 1290 ± 40 µM, the turnover number (kcat) was determined as 3.41 ± 0.07 s⁻¹ and the kcat/Km came to 2640 ± 100 M⁻¹ s⁻¹.

B1: CgTpdA (Corynebacterium glaucum) (protein)
chain: MSNDNAVNSAVTSTDFTFSPNRERIFQELAELISHYSPHSMPEHAATHEEAAKWVTAKLEELGLDVTRHPTVDDADTIIGVKEPVGDAPTVLLYSHYDVVPAQNPAVWTNDPLELDERGGRWYGRGAADCKGNVIMHLAALRMVQENGGTDLGIKVVVEGSEELGGEDGLGKLIDANPELFTADVIFIGDGGNVAVGIPTLTTHLRGGAQLRIKVDTLEGPVHSGGWGGAAPDAAHALIRISDSFFDEHGRTTIEGVDTTAKWEGDPYDRETFRKDARVLDGVQLLGTVDDEPADMVWARPAITVIGFTSVPVKDATNIVNSTAEAQFNLRVPAPQSAAEVAKKVEEQIYARAPWGAKVEVSVTGVNEPFSTDPNGPAVQHFGKCMQDAYGAERLTVVGTGGSIPLTVTLQKHFPDAEFALYGVADPAANIHGIDESVDPTEIEHVAIAEATFLLTYGK
In the case of B1, the Km in data set [3] is 480 ± 30 µM.

B2: SaPepV (Staphylococcus aureus subsp. aureus USA300) (protein)
chain: MWKEKVQQYEDQIINDLKGLLAIESVRDDAKASEDAPVGPGPRKALDYMYEIAHRDGFTTHDVDHIAGRIEAGKGNDVLGILCHVDVVPAGDGWDSNPFEPVVTEDAIIARGTLDDKGPTIAAYYAIKILEDMNVDWKKRIHMIIGTDEESDWKCTDRYFKTEEMPTLGFAPDAEFPCIHGEKGITTFDLVQNKLTEDQDEPDYELITFKSGERYNMVPDHAEARVLVKENMTDVIQDFEYFLEQNHLQGDSTVDSGILVLTVEGKAVHGMDPSIGVNAGLYLLKFLASLNLDNNAQAFVAFSNRYLFNSDFGEKMGMKFHTDVMGDVTTNIGVITYDNENAGLFGINLRYPEGFEFEKAMDRFANEIQQYGFEVKLGKVQPPHYVDKNDPFVQKLVTAYRNQTNDMTEPYTIGGGTYARNLDKGVAFGAMFSDSEDLMHQKNEYITKKQLFNATSIYLEAIYSLCVEE
As to B2, in data set [3] (Mn2+-bound enzyme), the Michaelis-Menten constant (Km) was determined as 3340 ± 340 µM.
